Binding result and Kd data for two molecules are collected here from article doi:10.1101/2020.09.10.287607 (bioRxiv, 2020).

What all share (assay): in vitro binding assay
The target of test [1] is T1, recombinant human RSPO3 (Peprotech 120-44) (human, UniProt Q9BXY4 22-272).
T1 sequence (looked up): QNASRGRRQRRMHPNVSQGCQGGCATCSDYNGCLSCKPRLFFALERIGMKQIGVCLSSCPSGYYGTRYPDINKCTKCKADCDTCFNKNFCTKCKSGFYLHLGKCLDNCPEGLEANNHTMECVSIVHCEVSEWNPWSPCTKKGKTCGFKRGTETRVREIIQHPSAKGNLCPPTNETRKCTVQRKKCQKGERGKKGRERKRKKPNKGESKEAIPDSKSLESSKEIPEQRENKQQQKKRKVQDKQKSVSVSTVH

Test [2] concerns the target T2, recombinant human RSPO2 (Peprotech 120-43) (human, UniProt Q6UXX9 22-243).
Test [3] deals with T2, recombinant human RSPO2 (Peprotech …). The source holds these as a separate data set.

T2 sequence (Q6UXX9 22-243): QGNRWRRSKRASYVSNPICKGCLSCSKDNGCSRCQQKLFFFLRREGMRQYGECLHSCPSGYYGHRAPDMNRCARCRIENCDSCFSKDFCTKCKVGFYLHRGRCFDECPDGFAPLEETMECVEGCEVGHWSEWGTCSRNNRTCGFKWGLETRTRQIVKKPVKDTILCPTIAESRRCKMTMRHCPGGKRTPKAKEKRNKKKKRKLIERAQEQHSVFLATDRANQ

B1: recombinant human ZNRF3 Fc Chimera protein (R&D systems 7994-RF) (Fc fusion, UniProt Q9ULT6 56-219, looked up)
chain: KETAFVEVVLFESSPSGDYTTYTTGLTGRFSRAGATLSAEGEIVQMHPLGLCNNNDEEDLYEYGWVGVVKLEQPELDPKPCLTVLGKAKRAVQRGATAVIFDVSENPEAIDQLNQGSEDPLKRPVVYVKGADAIKLMNIVNKQKVARARIQHRPPRQPTEYFDM
Regarding B1, the binding result in test [1] and in test [2] was “binds” throughout.

B2: BMPR1A^ECD-AP (domain or fragment, UniProt P36894 24-152, looked up)
chain: QNLDSMLHGTGMKSDSDQKKSENGVTLAPEDTLPFLKCYCSGHCPDDAINNTCITNGHCFAIIEEDDQGETTLASGCMKYEGSDFQCKDSPKAQLRRTIECCRTNLCNQYLQPTLPPVVIGPFFDGSIR
A word on the Kd: it is the concentration at which binding is half-saturated. For the molecule B2, the equilibrium dissociation constant (Kd) in test [3] is around 4.8 nM.
